According to article PMC7970865 (Scientific Reports, 2021):

Key:
[1] = target: T1, P. falciparum CSP on transgenic P. berghei sporozoites (Plasmodium falciparum, gene strain not …, UniProt Q7K740); experiment: ELISA; conditions: one partner purified
T1 construct: also called transgenic P. berghei sporozoites carrying the P. falciparum CSP gene; transgenic P. berghei-falciparum sporozoites

NPDP19 peptide = target: T2, NPDP19 peptide (Plasmodium falciparum CSP junction, …); experiment: ELISA; conditions: both partners purified
T2 construct: also called peptide NPDP-19
T2 chain: KQPADGNPDPNANPNVDPN

NANPx6 peptide = target: T3, NANPx6 peptide (Plasmodium falciparum CSP repeat, …); experiment: ELISA; conditions: both partners purified
T3 construct: also called NANP6; short repeat peptide

[2] = target: P. falciparum sporozoite CSP (Plasmodium falciparum NF54, UniProt P19597); experiment: cell-based or functional assay
biotinylated NANPx6 = target: T4, biotinylated NANPx6 (Plasmodium falciparum CSP repeat, …); experiment: BLI; Octet RED96; biotinylated FL-CSP or biotinylated NANPx6 on streptavidin biosensors, Fab in solution, kinetics buffer; global fit to 1:1 Langmuir model; conditions: both partners purified
T4 construct: also called NANPx6 peptide; NANPx6 target antigen

peptide 21 = target: T5, peptide 21 (Plasmodium falciparum CSP junction, …); experiment: ELISA; conditions: both partners purified
T5 construct: also called NP-DPNA-NPNV-DPNA-N
T5 chain: NPDPNANPNVDPNAN

B1: mAb 311 (antibody, V domains shown)
VH: QVQLVESGGGVVPPGRSLRLSCATSGFTFSNYGMHWVRQAPGKGLEWVAIIWYDGSRNFYAASVEGRFTISRDNSKNTLYLQMNSLRVEDTAVYYCARAAYYDTSGYGDYWGQGTLVTVSS
VL: QSVLTQPPSVSGAPGQTVTISCTGGSSNIGAGYDVHWYQQLPGTAPKLLIYGNINRPSGVPDRFSGSKSGTSASLAITGLQAEDEADYYCQSYDRRLSGSWVFGGGTKLTVL
Q: Does B1 bind [1]?
A: binds

Q: Does B1 bind (NPDP19 peptide)?
A: binds

Q: What about the “ng/ml mAb needed for OD = 1” value (NANPx6 peptide) of the same binder?
A: < 10 ng/mL

Q: What about the other [2] of the same binder?
A: ~100%

B2: Fab 311 (Fab, V domains shown)
VH: QVQLVESGGGVVPPGRSLRLSCATSGFTFSNYGMHWVRQAPGKGLEWVAIIWYDGSRNFYAASVEGRFTISRDNSKNTLYLQMNSLRVEDTAVYYCARAAYYDTSGYGDYWGQGTLVTVSS
VL: QSVLTQPPSVSGAPGQTVTISCTGGSSNIGAGYDVHWYQQLPGTAPKLLIYGNINRPSGVPDRFSGSKSGTSASLAITGLQAEDEADYYCQSYDRRLSGSWVFGGGTKLTVL
Q: For B2, which Kd (biotinylated NANPx6) is on record?
A: 7 nM

Q: And the koff (biotinylated NANPx6)?
A: 0.0002 s⁻¹

Q: And the kon (biotinylated NANPx6)?
A: 27000 M⁻¹ s⁻¹

B3: mAb MGG4 (antibody, V domains shown)
VH: QVQLVESGGGVVQPGRSLRLSCAASGFRFSDYGMHWVRQAPGKGLEWVALIWYDGSNESYLDSVKGRFTISRDNSKNTLYLQMNNLRTEDTAVYYCAKLLVGITTDVFDVWGQGTVVTVSS
VL: DIVMTQSPDSLAVSLGERATINCRSSQSVLSSSNNKNYLAWYQHKPRQPPKLLIYWASTRESGVPDRFSGSGSGTDFTLTISSLQAEDVAVYYCQQYYTASPFFGGGTKVEIK
Q: What does the source list for B3?
A: binding result [1]: binds; binding result (NPDP19 peptide): binds; ng/ml mAb needed for OD = 1 (NANPx6 peptide): < 10 ng/mL; other [2]: ~100%

B4: Fab MGG4 (Fab, V domains shown)
VH: QVQLVESGGGVVQPGRSLRLSCAASGFRFSDYGMHWVRQAPGKGLEWVALIWYDGSNESYLDSVKGRFTISRDNSKNTLYLQMNNLRTEDTAVYYCAKLLVGITTDVFDVWGQGTVVTVSS
VL: DIVMTQSPDSLAVSLGERATINCRSSQSVLSSSNNKNYLAWYQHKPRQPPKLLIYWASTRESGVPDRFSGSGSGTDFTLTISSLQAEDVAVYYCQQYYTASPFFGGGTKVEIK
notes: also called MGG4 Fab
Q: What does the source list for B4?
A: Kd (biotinylated NANPx6): 51 nM; koff (biotinylated NANPx6): 0.0045 s⁻¹; kon (biotinylated NANPx6): 90000 M⁻¹ s⁻¹

B5: mAb 317 (antibody, V domains shown)
VH: QMQLVESGGGVVQPGRSLRLSCTASGFTFSTYAMHWVRQSPGQGLQWVAVISYHSTNKYYEDSVRGRFTISRDNSKNTLYLQMNSLRAEDTAVYYCARDGYSSSFFDFWGQGTLVTVSS
VL: DIQMTQSPSTLSASVGDRVAITCRASQSISRWLAWYQQQPGKAPKLLMSGASVLESGVPSRFSGSGSGTEFTLTISSLQPDDFATYYCQHYNSYFVTFGQGTKVEIK
Q: Which “ng/ml mAb needed for OD = 1” value (NANPx6 peptide) does the source give for B5 here?
A: < 10 ng/mL

B6: Fab 317 (Fab, V domains shown)
VH: QMQLVESGGGVVQPGRSLRLSCTASGFTFSTYAMHWVRQSPGQGLQWVAVISYHSTNKYYEDSVRGRFTISRDNSKNTLYLQMNSLRAEDTAVYYCARDGYSSSFFDFWGQGTLVTVSS
VL: DIQMTQSPSTLSASVGDRVAITCRASQSISRWLAWYQQQPGKAPKLLMSGASVLESGVPSRFSGSGSGTEFTLTISSLQPDDFATYYCQHYNSYFVTFGQGTKVEIK
Q: With B6 as the binder, how does the Kd (biotinylated NANPx6) read?
A: 0.003 nM

B7: mAb CIS43 (antibody, V domains shown)
VH: QVQLVQSGAEVKKPGASVKVSCKASGYTFTSYAIHWVRQAPGQRLEWMGWIKAGNGNTRYSQKFQDRVTITRDTSTTTAYMELSSLRSEDTAVYYCALLTVLTPDDAFDIWGQGTMVTVSS
VL: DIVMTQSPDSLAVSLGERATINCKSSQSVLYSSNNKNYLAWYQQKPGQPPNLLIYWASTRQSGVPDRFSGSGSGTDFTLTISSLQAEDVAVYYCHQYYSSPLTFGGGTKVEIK
Q: Does B7 bind (peptide 21)?
A: binds

Q: Does B7 bind (NPDP19 peptide)?
A: binds

Q: And the “ng/ml mAb needed for OD = 1” value (NANPx6 peptide)?
A: < 10 ng/mL

Q: And the other [2]?
A: ~100%

B8: Fab CIS43 (Fab, V domains shown)
VH: QVQLVQSGAEVKKPGASVKVSCKASGYTFTSYAIHWVRQAPGQRLEWMGWIKAGNGNTRYSQKFQDRVTITRDTSTTTAYMELSSLRSEDTAVYYCALLTVLTPDDAFDIWGQGTMVTVSS
VL: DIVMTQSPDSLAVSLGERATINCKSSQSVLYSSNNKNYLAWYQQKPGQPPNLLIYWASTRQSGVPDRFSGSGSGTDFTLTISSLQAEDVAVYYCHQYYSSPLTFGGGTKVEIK
Q: For B8, which Kd (biotinylated NANPx6) is on record?
A: 41 nM

Q: And the koff (biotinylated NANPx6)?
A: 0.0017 s⁻¹

Q: What about the kon (biotinylated NANPx6) of the same binder?
A: 40000 M⁻¹ s⁻¹

B9: mAb 663 (antibody, V domains shown)
VH: EVQLLESGGGLEQPGGSLRLSCVVSGFTFSNYAFNWVRQAPGKGLEWVAIIYRSGSRMYHADSVKGRFTISRDDSKNTLFLQMNNLRAEDTAVYYCTTLLIYESDVGVDFWGQGTLVTVSS
VL: DIVMTQSPLSLPVSPGEPASISCRSTQSLIFGEHNYLDWYLQKPGQSPQLLIYLASNRASGVPDRFSGSGSGTYFTLKISRVEAEDFGVYYCVQTVQVPYTFGQGTKLEIK
Q: Does B9 bind [1]?
A: binds

Q: Does B9 bind (NPDP19 peptide)?
A: binds

Q: What about the “ng/ml mAb needed for OD = 1” value (NANPx6 peptide) of the same binder?
A: < 10 ng/mL

Q: And the other [2]?
A: ~100%

B10: Fab 663 (Fab, V domains shown)
VH: EVQLLESGGGLEQPGGSLRLSCVVSGFTFSNYAFNWVRQAPGKGLEWVAIIYRSGSRMYHADSVKGRFTISRDDSKNTLFLQMNNLRAEDTAVYYCTTLLIYESDVGVDFWGQGTLVTVSS
VL: DIVMTQSPLSLPVSPGEPASISCRSTQSLIFGEHNYLDWYLQKPGQSPQLLIYLASNRASGVPDRFSGSGSGTYFTLKISRVEAEDFGVYYCVQTVQVPYTFGQGTKLEIK
Q: Which results are given for B10?
A: Kd (biotinylated NANPx6): 138 nM; koff (biotinylated NANPx6): 0.056 s⁻¹; kon (biotinylated NANPx6): 400000 M⁻¹ s⁻¹
